The values below come from patent publication US20210371503A1.

The test deals with prefusion stabilized SARS-CoV-2 S ectodomain (SARS-CoV-2) (UniProt P0DTC2). The test is described as follows: assay not stated; row Binding Affinity Spike Trimer, construct not given.

Usually Kd stands for the constant that tells how readily two partners part at equilibrium. Read a low Kd as a tighter complex. Take REGN10933 (antibody): the Kd was 3 nM.
